B1: FBSP (ABCC1 promoter) (dsDNA)
DNA 1: GTACAGTCAC
DNA 2: GTGACTGTAC
B2: FBS (ABCC2 promoter) (dsDNA)
DNA 1: CTGTCCTGTAA
DNA 2: TTACAGGACAG

Columns and labels:
Settings in all cases: protein: recombinant; tags: N-terminal His; label: 5'-biotin
[1] = target: T1, FTZ-F1 T288A(-P) (non-phosphorylated form) (Plutella xylostella, UniProt A0ABQ7R810 1-557, T288A); experiment: EMSA; 20 fmol probe; EMSA: 25 °C, 30 min, 20 fmol biotin probe, LightShift Chemiluminescent EMSA Kit; buffer, salt and pH not stated
[2] = target: T2, FTZ-F1 T288D(P) (phosphomimic) (Plutella xylostella, UniProt A0ABQ7R810 1-557, T288D); experiment: EMSA; 20 fmol probe; cold competitor 100 and 500 fmol; EMSA: 25 °C, 30 min, 20 fmol biotin probe, LightShift Chemiluminescent EMSA Kit; buffer, salt and pH not stated
[3] = target: T2, FTZ-F1 T288D(P) (phosphomimic); experiment: EMSA; 20 fmol probe; EMSA: 25 °C, 30 min, 20 fmol biotin probe, LightShift Chemiluminescent EMSA Kit; buffer, salt and pH not stated
[4] = target: T1, FTZ-F1 T288A(-P) (non-phosphorylated …); experiment: EMSA; 20 fmol probe; cold competitor 100 and 500 fmol; EMSA: 25 °C, 30 min, 20 fmol biotin probe, LightShift Chemiluminescent EMSA Kit; buffer, salt and pH not stated

T1 sequence (A0ABQ7R810 entry or part of it T288A | T288A T288A): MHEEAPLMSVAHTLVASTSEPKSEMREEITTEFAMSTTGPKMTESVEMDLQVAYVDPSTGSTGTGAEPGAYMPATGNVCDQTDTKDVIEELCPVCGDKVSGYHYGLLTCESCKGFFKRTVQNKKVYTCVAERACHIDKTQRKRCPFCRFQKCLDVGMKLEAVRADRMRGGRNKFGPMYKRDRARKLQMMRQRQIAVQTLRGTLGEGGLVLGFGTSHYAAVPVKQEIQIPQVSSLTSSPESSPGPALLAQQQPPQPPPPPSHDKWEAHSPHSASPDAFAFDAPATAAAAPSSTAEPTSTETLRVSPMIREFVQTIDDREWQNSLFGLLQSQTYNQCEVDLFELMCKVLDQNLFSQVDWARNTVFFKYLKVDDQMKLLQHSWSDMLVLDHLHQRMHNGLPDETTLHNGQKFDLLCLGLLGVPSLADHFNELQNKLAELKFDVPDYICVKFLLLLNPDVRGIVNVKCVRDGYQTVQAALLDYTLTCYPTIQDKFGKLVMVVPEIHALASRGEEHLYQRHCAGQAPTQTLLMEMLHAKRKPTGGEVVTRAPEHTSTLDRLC
T2 sequence (A0ABQ7R810 entry or part of it T288D | T288D T288D): as the sequence (A0ABQ7R810 entry or part of it T288A | T288A T288A) above, with A288D counted along it

Row | Binder | binding result [1] | binding result [2] | binding result [3] | binding result [4]
1 | B1 | no binding | binds |  | 
2 | B2 |  |  | no binding | binds
